Results: US20150344570A1 (published 2015)

T1: FcγRIIb extracellular domain with C-terminal His tag (human, UniProt P31994 43-217)
T1 construct: extracellular domain; also called FcgRIIb; 2b; not shown: His tag at the C terminus
T1 sequence (looked up): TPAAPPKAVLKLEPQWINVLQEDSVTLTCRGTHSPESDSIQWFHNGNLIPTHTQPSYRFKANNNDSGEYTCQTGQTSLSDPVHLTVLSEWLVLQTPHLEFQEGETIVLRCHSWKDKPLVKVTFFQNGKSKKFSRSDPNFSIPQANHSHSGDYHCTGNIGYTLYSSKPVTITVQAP

T2: FcγRIIa R (human, UniProt P12318 34-217)
T2 construct: extracellular domain; also called FcgRIIa R type; 2aR; not shown: His tag at the C terminus
T2 sequence (looked up): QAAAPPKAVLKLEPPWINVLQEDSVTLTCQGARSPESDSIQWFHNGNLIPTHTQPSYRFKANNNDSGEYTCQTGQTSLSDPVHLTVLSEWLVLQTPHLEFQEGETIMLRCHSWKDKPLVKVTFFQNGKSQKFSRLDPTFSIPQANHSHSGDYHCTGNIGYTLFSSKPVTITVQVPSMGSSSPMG

T3: FcγRIIb (human, UniProt P31994 43-217)
T3 construct: extracellular domain; also called FcgRIIb; 2b; not shown: His tag at the C terminus
T3 sequence (looked up): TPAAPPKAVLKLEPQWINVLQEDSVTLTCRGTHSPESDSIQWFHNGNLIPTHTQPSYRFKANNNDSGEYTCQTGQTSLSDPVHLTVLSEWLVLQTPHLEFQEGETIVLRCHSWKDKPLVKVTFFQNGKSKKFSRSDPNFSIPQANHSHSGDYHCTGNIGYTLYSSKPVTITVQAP


Tests used:
[1] = target: T4, FcγRIIIa extracellular domain with C-terminal His tag (human, UniProt P08637 17-208); experiment: SPR (Biacore); He/Con_3a divided by He/Con_2b (FcγRIIb)
T4 construct: extracellular domain; also called FcgRIIIa; 3a; not shown: His tag at the C terminus
T4 sequence (P08637 17-208): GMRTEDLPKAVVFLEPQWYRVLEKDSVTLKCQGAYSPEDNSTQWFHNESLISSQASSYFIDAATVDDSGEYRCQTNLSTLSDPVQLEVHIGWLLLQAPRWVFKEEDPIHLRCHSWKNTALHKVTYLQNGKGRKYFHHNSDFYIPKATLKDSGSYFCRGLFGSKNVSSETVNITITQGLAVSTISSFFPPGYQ

[2] = target: T4, FcγRIIIa extracellular domain with …; experiment: SPR (Biacore), FcγR as analyte over captured antibody; GpH7-A5/GpH7-B3/GpL16-k0 = 100
Procedure: (§1) The heterodimerized antibodies He Abs in which one of the H chains was introduced with an alteration were assayed for their binding activities to each activating FcγR and inhibitory FcγR according to the method described in Example 4. […] The activating FcγRs in FIGS. 26, 27, 28, and 29 are FcγRIa, FcγRIIa (R), FcγRIIa (H), and FcγRIIIa, respectively.
(§2) Analysis of interaction between objective antibody and the FcγR was carried out using Biacore T100 (GE Healthcare). HBS-EP+ (GE Healthcare) was used as the running buffer, and the measurement temperature was set to 25° C. Chips produced by immobilizing the antigen peptide by the amine coupling method to a Series S Sencor Chip CM5 (GE Healthcare), or alternatively, chips produced by allowing preliminarily biotinylated antigen peptides to interact with and immobilize onto a Series S Sensor Chip SA (certified) (GE Healthcare) were used. Antibodies of interest were captured onto an antigen peptide-immobilized chip, and allowed to interact to each FcγR diluted with running buffer. To regenerate and repeatedly use the chip, the antibodies captured on the chip were washed off by reacting 10 mM glycine-HCl, pH 1.5.

[3] = target: T1, FcγRIIb extracellular domain with …; experiment: as above
Procedure: as §1, §2

FcγRIIa R [4] = target: T2, FcγRIIa R; experiment: SPR; He/Con_2aR divided by He/Con_2b (FcγRIIa R over FcγRIIb)
FcγRIIb = target: T3, FcγRIIb; experiment: SPR, relative to GpH7-A5/GpH7-B3/GpL16-k0
FcγRIIa R [5] = target: T2, FcγRIIa R; experiment: SPR, relative to GpH7-A5/GpH7-B3/GpL16-k0

| He_3a/2b (IIIa/IIb) [1] [ratio] | He/Con_3a [2] | He/Con_2b [3] | He_2aR/2b (FcγRIIa R [4]) [ratio] | He/Con_2b (FcγRIIb) [control = 100] | He/Con_2aR (FcγRIIa R [5]) [control = 100] | Binder |
| --- | --- | --- | --- | --- | --- | --- |
| 0.49 | 83.7 % of control | 172 % of control | – | – | – | GpH7-A5/GpH7-B3 variant A327_09D/GpL16-k0 (antibody, human IgG1, kappa, Heterodimerized IgG1 antibody; alteration in the GpH7-B3 chain only; also called He Ab) heavy 1: not shown heavy 2: not shown light: DIVMTQSPLSLPVTPGEPASISCQASESLVHSNRNTYLHWYLQKPGQSPQLLIYKVSNRFSGVPDRFSGSGSGTDFTLKISRVEAEDVGVYYCSQNTHVPPTFGQGTKVEIERTVAAPSVFIFPPSDEQLKSGTASVVCLLNNFYPREAKVQWKVDNALQSGNSQESVTEQDSKDSTYSLSSTLTLSKADYEKHKVYACEVTHQGLSSPVTKSFNRGEC |
| 0.72 | 46.2 % of control | 63.7 % of control | – | – | – | GpH7-A5/GpH7-B3 variant A327_04F/GpL16-k0 (antibody, human IgG1, kappa, Heterodimerized IgG1 antibody; alteration in the GpH7-B3 chain only; also called He Ab) heavy 1: not shown heavy 2: not shown light: DIVMTQSPLSLPVTPGEPASISCQASESLVHSNRNTYLHWYLQKPGQSPQLLIYKVSNRFSGVPDRFSGSGSGTDFTLKISRVEAEDVGVYYCSQNTHVPPTFGQGTKVEIERTVAAPSVFIFPPSDEQLKSGTASVVCLLNNFYPREAKVQWKVDNALQSGNSQESVTEQDSKDSTYSLSSTLTLSKADYEKHKVYACEVTHQGLSSPVTKSFNRGEC |
| 0.54 | 61.1 % of control | 113 % of control | – | – | – | GpH7-A5/GpH7-B3 variant A327_18N/GpL16-k0 (antibody, human IgG1, kappa, Heterodimerized IgG1 antibody; alteration in the GpH7-B3 chain only; also called He Ab) heavy 1: not shown heavy 2: not shown light: DIVMTQSPLSLPVTPGEPASISCQASESLVHSNRNTYLHWYLQKPGQSPQLLIYKVSNRFSGVPDRFSGSGSGTDFTLKISRVEAEDVGVYYCSQNTHVPPTFGQGTKVEIERTVAAPSVFIFPPSDEQLKSGTASVVCLLNNFYPREAKVQWKVDNALQSGNSQESVTEQDSKDSTYSLSSTLTLSKADYEKHKVYACEVTHQGLSSPVTKSFNRGEC |
| – | – | – | -5.55 | 1 | -5.6 | GpH7-A5/GpH7-B3 variant V266_11K/GpL16-k0 (antibody, human IgG1, kappa, Heterodimerized anti-glypican-3 IgG1; mutation in the GpH7-B3 chain only; also called He Ab) heavy 1: not shown heavy 2: not shown light: DIVMTQSPLSLPVTPGEPASISCQASESLVHSNRNTYLHWYLQKPGQSPQLLIYKVSNRFSGVPDRFSGSGSGTDFTLKISRVEAEDVGVYYCSQNTHVPPTFGQGTKVEIERTVAAPSVFIFPPSDEQLKSGTASVVCLLNNFYPREAKVQWKVDNALQSGNSQESVTEQDSKDSTYSLSSTLTLSKADYEKHKVYACEVTHQGLSSPVTKSFNRGEC |
| 0.33 | 42.4 % of control | 127 % of control | – | – | – | GpH7-A5/GpH7-B3 variant A327_07I/GpL16-k0 (antibody, human IgG1, kappa, Heterodimerized IgG1 antibody; alteration in the GpH7-B3 chain only; also called He Ab) heavy 1: not shown heavy 2: not shown light: DIVMTQSPLSLPVTPGEPASISCQASESLVHSNRNTYLHWYLQKPGQSPQLLIYKVSNRFSGVPDRFSGSGSGTDFTLKISRVEAEDVGVYYCSQNTHVPPTFGQGTKVEIERTVAAPSVFIFPPSDEQLKSGTASVVCLLNNFYPREAKVQWKVDNALQSGNSQESVTEQDSKDSTYSLSSTLTLSKADYEKHKVYACEVTHQGLSSPVTKSFNRGEC |
| 0.63 | 72.4 % of control | 116 % of control | – | – | – | GpH7-A5/GpH7-B3 variant A327_01G/GpL16-k0 (antibody, human IgG1, kappa, Heterodimerized IgG1 antibody; alteration in the GpH7-B3 chain only; also called He Ab) heavy 1: not shown heavy 2: not shown light: DIVMTQSPLSLPVTPGEPASISCQASESLVHSNRNTYLHWYLQKPGQSPQLLIYKVSNRFSGVPDRFSGSGSGTDFTLKISRVEAEDVGVYYCSQNTHVPPTFGQGTKVEIERTVAAPSVFIFPPSDEQLKSGTASVVCLLNNFYPREAKVQWKVDNALQSGNSQESVTEQDSKDSTYSLSSTLTLSKADYEKHKVYACEVTHQGLSSPVTKSFNRGEC |
| 0.48 | 45.8 % of control | 94.7 % of control | – | – | – | GpH7-A5/GpH7-B3 variant A327_03V/GpL16-k0 (antibody, human IgG1, kappa, Heterodimerized IgG1 antibody; alteration in the GpH7-B3 chain only; also called He Ab) heavy 1: not shown heavy 2: not shown light: DIVMTQSPLSLPVTPGEPASISCQASESLVHSNRNTYLHWYLQKPGQSPQLLIYKVSNRFSGVPDRFSGSGSGTDFTLKISRVEAEDVGVYYCSQNTHVPPTFGQGTKVEIERTVAAPSVFIFPPSDEQLKSGTASVVCLLNNFYPREAKVQWKVDNALQSGNSQESVTEQDSKDSTYSLSSTLTLSKADYEKHKVYACEVTHQGLSSPVTKSFNRGEC |
| 0.46 | 41.4 % of control | 89.4 % of control | – | – | – | GpH7-A5/GpH7-B3 variant A327_14T/GpL16-k0 (antibody, human IgG1, kappa, Heterodimerized IgG1 antibody; alteration in the GpH7-B3 chain only; also called He Ab) heavy 1: not shown heavy 2: not shown light: DIVMTQSPLSLPVTPGEPASISCQASESLVHSNRNTYLHWYLQKPGQSPQLLIYKVSNRFSGVPDRFSGSGSGTDFTLKISRVEAEDVGVYYCSQNTHVPPTFGQGTKVEIERTVAAPSVFIFPPSDEQLKSGTASVVCLLNNFYPREAKVQWKVDNALQSGNSQESVTEQDSKDSTYSLSSTLTLSKADYEKHKVYACEVTHQGLSSPVTKSFNRGEC |
